assay: soluble on expression in E. coli; label from the status in PepcDB or PDB records

Row | Sequence | soluble on expression in E. coli
1 | MASNMDREMILADFQACTGIENIDEAITLLEQNNWDLVAAINGVIPQENGILQSEYGGETIPGPAFNPASHPASAPTSSSSSAFRPVMPSRQIVERQPRMLDFRVEYRDRNVDVVLEDTCTVGEIKQILENELQIPVSKMLLKGWKTGDVEDSTVLKSLHLPKNNSLYVLTPDLPPPSSSSHAGALQESLNQNFMLIITHREVQREYNLNFSGSSTIQEVKRNVYDLTSIPVRHQLWEGWPTSATDDSMCLAESGLSYPCHRLTVGRRSSPAQTREQSEEQITDVHMVSDSDGDDFEDATEFGVDDGEVFGMASSALRKSPMMPENAENEGDALLQFTAEFSSRYGDCHPVFFIGSLEAAFQEAFYVKARDRKLLAIYLHHDESVLTNVFCSQMLCAESIVSYLSQNFITWAWDLTKDSNRARFLTMCNRHFGSVVAQTIRTQKTDQFPLFLIIMGKRSSNEVLNVIQGNTTVDELMMRLMAAMEIFTAQQQEDIKDEDEREARENVKREQDEAYRLSLEADRAKREAHEREMAEQFRLEQIRKEQEEEREAIRLSLEQALPPEPKEENAEPVSKLRIRTPSGEFLERRFLASNKLQIVFDFVASKGFPWDEYKLLSTFPRRDVTQLDPNKSLLEVKLFPQETLFLEAKE | soluble
2 | MGSDKIHHHHHHMAEAGTLAVLVPEITIEELFTAQGADLSRRSPRQDMVDLNIKLLAEARELAKVSIIWQEVKVLGSQQQELYLEGGLTLRGSLLPKVLGPAESAVLFAMTIGEGIDERVKEYTHQGKTLEAFILDAAGSAILAKAAYHAISELAGLYKEKQLDTTFSLGPGHSYWKGLEDVRTIIDYLKGEQIGISLTDSNLMLPKKSIAMVMGVGSNLPDFKGKTHCDFCHLKGSCTMRELGVNNC | not soluble
3 | MGSDKIHHHHHHMQWRRVLRFVNMEVVYVLGVKGGIGKTTFSLYFANQLSLTGKKVLYIDHDYFSFGSLILGHNDLGLLEEIENNLPIFSRSLKNINNLYILKLFSNPLDANKDYSLLSNSIPQVVNSIAKMGLDYVILDSSVGILPDNDIVIGLLEELDVEKKGVFLSDMLSVNSTIKYAKLWENAIKYKILVINMVPPIPEDLSEAMKIANKVYDDNNSKLFNTVVVVPFDEKMYNYKPLGNEYENERLNTILSCIVNRCNTLIIN | not soluble
4 | MGHHHHHHSHLCTNFFIFTGGPGSGKTAVLNELNTWGYLTVSEVARSIIQKQQADGGDAIHTGNRKAFRDLMLEQSIADYCKMQSEEKIVFFDRGIPDLYGYSKAFCGEASKEVNEAVGRFRYNKTVFIFPPWPEIYENDDERQQDYQEALQTYYAVKEGYFDCGYVLLEVPKCPIKDRANFIFQMISKNG | not soluble
5 | MLHKRFRRYSMLKRYGQIIEVLQKYGFGYIVDQIGLGSFGDFTSRLKKQEKRDEHNLSGPVRTRRILEELGPTYIKLGQLLSMRRDLVPLEYAAEFSKLQDDAPSFGFEEVELIIREELGLPVEDLFESFEKKPLACASIGQVHRAKLKNGDDVVVKVQRPGIKEVIESDLDIMYSLSRLLTEHIPEARLYRPVELVDELSRSILAEIDYSQEGWNTDRFAENFKDSEQIHIPKVYWDYTGLEHHHHHH | not soluble
6 | MTIVAENLTKHLSNLSKRGPHRVLVGDLDYVGLPGKIYTPAEGNGLPAVVFAHDWMQDISRYHATLRHLASWGIVVAAPNTEKGISPNHRGFAADIETSLQVLTGVKLGAGNISVAPGRLGIVGHGMGAGAAVLAAADRPQIAAVAAIYPSQVSPSADVAARNVEAAGLVLGTEENAMFDFGNAAKLALEWKGPVAYREIDRASHQTLTENTLFKRVTGLGGTNTAARERIRGVVTGFLLHQLADQKKYSGFSEADATGKKVHSYWGEELQERASLTGDSKLTLFKS | not soluble
7 | MGSDKIHHHHHHMGIENMKICIVSFTKKGYELSCDIAYKLEKSAYEVEVFTKCSRLSDENIKNSTDENYRNTGYISQNISDWTAAQMSEKKALIFIGACGIAVRAIASSVNNKLKDSPVIVIDELGKFVIPILSGHVGGANEFAVLLAALMNATPVITTATDINNKFAVDVFAKKCRLAIVNKDGIARVSSKVLAGEVVTMSVDWEHIPAKHRSLIKAFLDKADMSADAIKTVDFPPAYGADIVVSCEKEKDTKNGSIYLKPTQFVLGIGCRRDTAFENIDRAIRQSLLKLQIDISDIDMIASIDVKKDEPGIKEFCERNRIEFVTYTADELMAVQGEFSASQFVREHVGVDNVCERAAVLACSRECDKAGELIYKKHKYDRVTVAAARYPD | not soluble
8 | MSLTKVLVIDPKIAGMSGDMFVSSLLALTNSYDLMDELILELEKLNNCNSFKVSVMDEKVNGISAKQLKIEIDEERIKNPDELKEIIINTSKNLMSEKGVKICENIINDLIEAEKKLHGDHFHLHEISSLDTVFDIVLPVLILEKNGFLDGKIYSTPPSLGNGRISMDHGIIPSPAPSTLEILCKHEIKCSKVDSEFELLTPTGAAILSNVTDEFTDSYPEIVLLKTAYGAGTKRMEHVPNVLRLVEGKTDEKIIEKTVILETNIDDISSEILAYAVERLLNEGAPDVFITPVFGKKNRPSSMISVICPYHVHEKFAKILIEETGTLGVRINHYDKIRAKRRMEKLTLDINGVNFGFDVKISDLNGEIVNIKPEFEDLKKIAKNLNIPLRDVLRHANNKIKEIYGFEGHHHHHH | soluble
9 | MGSSHHHHHHDYDIPTTENLYFQGHMATNLKSTAKLVKPIQYDEVIEVERIFADPAFIEQHRQRILASFKDAKESALYHELTHIVIKDNLFSCAMNAIVGYFEFNIDEAELKNVMEGLKRDVIQGAEDNTVQAIAEKIIKKALVFNHLQKEWKVEITDEVVKNVISLYYEKTNQSVREYLDDKQKFEGVRTALLEERMVLETINHFKFHFNLTGQLPN | soluble
10 | MGSDKIHHHHHHMLLNLFNEMRAAKVPVSVRELLDLIDALKHRVVFADMDEFYYLARTIMVKDERHFDKFDRAFGAYFKGLEKLDDHLKALIPEEWLRKEFERLLTDEEKAQIQSLGGLDKLIEEFKKRLEEQKERHAGGNKWIGTGGTSPFGSGGFNPEGIRVGDAGKRQGKAAKVWDQREYKNLDDQVELGTRNIKIALRRLRKFAREGAAEELDIDGTIDHTAKDAGLLNIQMRPERRNTVKLLLLLDIGGSMDAHVKVCEELFSACKTEFKHLEYFYFHNFIYESVWKNNLRRSSERTATFDLLHKYGPDYKVVFVGDAAMAPYEITQAGGSVEHWNEEAGYVWMQRFMEKYKKLIWINPYPKDTWNYTASTGLVRELVKEQMYPLTLSGLEEGMRFLSRG | not soluble
11 | MRKLISTIIVSTLLIGGCSTVHKEAKHSSQSIPEEVPASQYKGQGFQPVAEKSAIAHAKKYREEYEKLGEQFFKDNFSLNVKATNVVGSGDGVEVYVHCDDHDIVFNASIPFDKEAIHEEGSMRSNDNGDTMSNMVGTVLSGFEYKAQKEKYDNLTKFFKDNEEKYQYTGFTKEAIHKTQNVGYQNEYYYLAGNVTNINNYRKYYEPLIKKDSKNFKEGMKKANEATNFKAKIEVVSTLFSTKSDFTKNNSKKDLLFLSDDLYHYKEKPENTNITLQLSEPKINSTRAFYDANNPLEYGVHKHELEHHHHHH | soluble
12 | GSHMAKEEIIWESLSVDVGSQGNPGIVEYKGVDTKTGEVLFEREPIPIGTNNMGEFLAIVHGLRYLKERNSRKPIYSNSQTAIKWVKDKKAKSTLVRNEETALIWKLVDEAEEWLNTHTYETPILKWQTDKWGEIKADYGRK | soluble
13 | MSLNHTAVNTAQAIILRDLVDALLFEDIAGIVSNSEITKENGQTLLIYERETQQIKIPVYFSALNMFRYESSQPITIEGRVSKQPLTAAEFWQTIANMNCDLSHEWEVARVEEGLTTAATQLAKQLSELDLASHPFVMSEQFASLKDRPFHPLAKEKRGLREADYQVYQAELNQSFPLMVAAVKKTHMIHGDTANIDELENLTVPIKEQATDMLNDQGLSIDDYVLFPVHPWQYQHILPNVFAKEISEKLVVLLPLKFGDYLSSSSMRSLIDIGAPYNHVKVPFAMQSLGALRLTPTRYMKNGEQAEQLLRQLIEKDEALAKYVMVCDETAWWSYMGQDNDIFKDQLGHLTVQLRKYPEVLAKNDTQQLVSMAALAANDRTLYQMICGKDNISKNDVMTLFEDIAQVFLKVTLSFMQYGALPELHGQNILLSFEDGRVQKCVLRDHDTVRIYKPWLTAHQLSLPKYVVREDTPNTLINEDLETFFAYFQTLAVSVNLYAIIDAIQDLFGVSEHELMSLLKQILKNEVATISWVTTDQLAVRHILFDKQTWPFKQILLPLLYQRDSGGGSMPSGLTTVPNPMVTYDEGHHHHHH | soluble
14 | MTTNIAANSGGIVFHFLGTGGAQQVPAFGCECEVCQQAQRNESKRRRACCAAITTKDRIILIDAGLPELSPYLLPYPQRHILLTHYHMDHVQGLFPLRWGYGEPIPVFGPPDEAGCDDLFKHPGILHFQKPLMAFQPFELDGIRITPVPLIHSKLTYGYLIQTPTHTLAYLTDTIGLPPETTQFLASHTLDYAIVDCSHPPQTMLPRNHNDITRALEIFTQLNPKQLYLTHISHELDRWLQTQTLLPENVHAAYDGLVLGLLEHHHHHH | not soluble
15 | MSRPTIIINDLDAERIDILLEQPAYAGLPIADALNAELDRAQMCSPEEMPHDVVTMNSRVKFRNLSDGEVRVRTLVYPAKMTDSNTQLSVMAPVGAALLGLRVGDSIHWELPGGVATHLEVLELEYQPEAAGDYLL | soluble
16 | MGSDKIHHHHHHMTNVSGYHRPELHITAESGVLFAPAGVLLDDDTWHFFHQYRPSPDHGPRWAHQFAERTPFVWDICDDVLAPEGDETQVRAGSVVSNNGGVDLYFTSVVGPTSTIQLAHINNIRGTTELINEDELGLDPDVSRIGEVVGNTDGYVKFRSPCVIPGWEDQGNRDEGHSGWLMLAVTGPVEAPTVVVLDSPDGREWSITGPLSLNGLSGLESDEVLVAPRMIRLRDEVDHEIYDVLIVTIEQDGIDISGYLVGQLNGSEFDVKTPFTRIDFGHDFSRPRNTNYAETTIGYDFAHIFGLMNGVGRLDSPTEHLSWKEEGWANAISFPRIVTLQDGTVFQTPPEGLLDAIHESEAAAGWTGLCEIPSNSAVEVALKDQEGEIAATITHRHNQLVVDRSMNPNHAGDPHAIAPLTDDETDSLFIVVDGSTVEVFADGGYVSMASRVYFNNGPFSEFEVTTTGDASIIRQESHFPVDFSSVSLDIDDLTALMQFDENEPHEGPVR | not soluble
17 | MKFCYNVVTYCTKRKNNLQEYSIEITLQHPDDMMSLFGSNERHLKLIEENLDVIIHARTERVQVLGDSEEAVETARLTIEALLVLVNRGMTVNTSDVVTALSMAQNGSIDKFVALYEEEIIKDSYGKPIRVKTLGQKIYVDSVKNHDVVFGIGPAGTGKTFLAVTLAVTALKRGQVKRIILTRPAVEAGESLGFLPGDLKEKVDPYLRPVYDALYQILGKEQTSRLMEREIIEIAPLAYMRGRTLDDAFVILDEAQNTTIMQMKMFLTRLGFNSKMIVNGDVSQIDLPKNVKSGLIDAVEKLRNIKKIDFIHLSAKDVVRHPVVAEIINAYSDSESSHKLQSDKD | not soluble
18 | MPPPIAFNASARKSQSVNQSDVMMMSDPSHVDIIKSNSHTTRIAVNLVSEPESRLKLHGEDARMSWTVLLLVFRATTIATRNNVPELDRELAR | not soluble
19 | EERRVAYPVLRELTERTGETSALMVWNGNESMCVEQIPSRHQVKHLAPLGARYNEALSSSVQVFLASENEDRVRQLLRSGSITLTGVDEDAVEAYLLRLKESMERGWAVNFGETSIEEVGVASPVYDHRGNMVASVLIPAPKFRVSQDTLNSLGEACAAAAAKVTTRLGGRAPH | soluble
20 | MAHHHHHHMYRNLFDKLKDGPLKISILGSGNWASAISKVVGTNAKNNYLFENEVRMWIRDEFVNGERMVDIINNKHENTKYLKGVPLPHNIVAHSDLASVINDADLLIFIVPCQYLESVLASIKESESIKIASHAKAISLTKGFIVKKNQMKLCSNYISDFLNIPCSALSGANIAMDVAMENFSEATIGGNDKDSLVIWQRVFDLPYFKINCVNETIEVEICGALKNIITLACGFCDGLNLPTNSKSAIIRNGINEMILFGKVFFQKFNENILLESCGFADIITSFLAGRNAKCSAEFIKSTPKKTWEELENEILKGQKLQGTVTLKYVYHMIKEKNMTNEFPLFTVLHKISFENEDPSSLLKTFMNNKINQLNL | soluble
